Measured values as given in article doi:10.1101/027631.

Molecular target: recombinant tubulin lacking the β-tubulin CTT, polymerised into microtubules (S. cerevisiae | human) (UniProt P09733)
Assay: TIRF microscopy of single fluorescent molecules on surface-held microtubules

## dynein-dynactin-BicD2 (DDB) complex (from UniProt Q921C5 25-400; A0A287B8J2 1-1281)
  reduction of the frequency of processive movement relative to WT MTs: 20%
